# Assay results: the array DNA melting data of Ke et al.
# Experiment: melting temperature; UV melt of duplexes
# Settings: strand 2 µM
substance,measurement,setting,value
TTCCAAAAGGAGTTATGAGTTGCGA+TCGCAACTCATAACTCCTTTTGGAA (((((((((((((((((((((((((+))))))))))))))))))))))))),Tm,sodium 0.07 M,59.1 °C
same,Tm,sodium 0.12 M,63 °C
same,Tm,sodium 0.22 M,67.2 °C
same,Tm,sodium 0.62 M,71.6 °C
same,Tm,sodium 1.02 M,73.8 °C
